B1: PRO951 (bispecific antibody)
chain: DIQMTQSPSSLSASVGDRVTITCQASQSINDYLAWYQQKPGKAPKLLIYKASTLASGVPSRFSGSGSGTDFTLTISSLQPEDFATYYCQQGYIITDIDNVFGTGTKVTVLGGGGGSEVQLVESGGGLVQPGGSLRLSCAASGFSFNNDYDMCWVRQAPGKGLEWIGCIDTGDGSTYYASWAKGRFTISRDNSKNTVYLQMNSLRAEDTAVYYCAREAASSSGYGMGYFDLWGQGTLVTVSSGGGGSGGGGSGGGGSGGGGSIQMTQSPSSLSASVGDRVTITCQSSQSVYDNNWLAWYQQKPGKAPKLLIYRASNLASGVPSRFSGSGSGTDFTLTISSLQPEDFATYYCQGTYLSSNWYWAFGTGTKVTVLGGGGGSQVQLQESGPGLVKPSETLSLTCKVSGFSFSSGYDMCWIRQPPGKGLEWIGCVVAGSVDITYYASWAKGRVTISVDSSKNQFSLKLSSVTAADTAVYYCARKDAYSDAFNLWGQGTLVTVSS
B2: PRO1123 (bispecific antibody)
chain: DIQMTQSPSSLSASVGDRVTITCQASQSINDYLAWYQQKPGKAPKLLIYKASTLASGVPSRFSGSGSGTDFTLTISSLQPEDFATYYCQQGYIITDIDNVFGTGTKVTVLGGGGGSQVQLQESGPGLVKPSETLSLTCKVSGFSFSNSYWICWVRQPPGKGLEWIGCTFVGSSDSTYYANWAKGRVTISVDSSKNQVSLKLSSVTAADTAVYFCARHPSDAVYGYANNLWGQGTLVTVSSGGGGSGGGGSGGGGSGGGGSIQMTQSPSSLSASVGDRVTITCQASQSINNVLAWYQQKPGKPPKLLIYRASTLASGVPSRFSGSGSGTDFTLTISSLQPEDFATYYCQSSYGNYGDFGTGTKVTVLGGGGGSQVQLQESGPGLVKPSETLSLTCKVSGFSFSSGYDMCWIRQPPGKGLEWIGCVVAGSVDITYYASWAKGRVTISVDSSKNQFSLKLSSVTAADTAVYYCARKDAYSDAFNLWGQGTLVTVSS
notes: also called 38-02-A04 sc05 IF scDb-i/33 03 G02 sc01 scDb-o
B3: PRO1013 (scFv)
scFv: DIQMTQSPSSLSASVGDRVTITCQASQSIGTYLAWYQQKPGKAPKLLIYRAFILASGVPSRFSGSGSGTDFTLTISSLQPEDFATYYCQSNFYSDSTTIGPNAFGTGTKVTVLGGGGGSGGGGSGGGGSGGGGSQVQLVQSGAEVKKPGASVKVSCKASGFSFNSDYWIYWVRQAPGQGLEWMGSIYGGSSGNTQYASWAQGRVTMTRDTSISTAYMELSSLRSEDTAVYYCARGYVDYGGATDLWGQGTLVTVSS
B4: PRO830 (scFv)
scFv: DIQMTQSPSSLSASVGDRVTITCQASQSINDYLAWYQQKPGKAPKLLIYKASTLASGVPSRFSGSGSGTDFTLTISSLQPEDFATYYCQQGYIITDIDNVFGTGTKVTVLGGGGGSGGGGSGGGGSGGGGSQVQLQESGPGLVKPSETLSLTCKVSGFSFSSGYDMCWIRQPPGKGLEWIGCVVAGSVDITYYASWAKGRVTISVDSSKNQFSLKLSSVTAADTAVYYCARKDAYSDAFNLWGQGTLVTVSS
B5: PRO963 (other)
chain: DIQMTQSPSSLSASVGDRVTITCQASQSINDYLAWYQQKPGKAPKLLIYKASTLASGVPSRFSGSGSGTDFTLTISSLQPEDFATYYCQQGYIITDIDNVFGTGTKVTVLGGGGGSQVQLQESGPGLVKPSETLSLTCKVSGFSFSNSYWICWIRQPPGKGLEWIGCTFVGSSDSTYYANWAKGRVTISVDSSKNQFSLKLSSVTAADTAVYYCARHPSDAVYGYANNLWGQGTLVTVSSGGGGSGGGGSGGGGSGGGGSIQMTQSPSSLSASVGDRVTITCQASQSINNVLAWYQQKPGKAPKLLIYRASTLASGVPSRFSGSGSGTDFTLTISSLQPEDFATYYCQSSYGNYGDFGTGTKVTVLGGGGGSQVQLQESGPGLVKPSETLSLTCKVSGFSFSSGYDMCWIRQPPGKGLEWIGCVVAGSVDITYYASWAKGRVTISVDSSKNQFSLKLSSVTAADTAVYYCARKDAYSDAFNLWGQGTLVTVSSGGGGSGGGGSIQMTQSPSSLSASVGDRVTITCQSSESVYSNNQLSWYQQKPGQPPKLLIYDASDLASGVPSRFSGSGSGTDFTLTISSLQPEDFATYYCAGGFSSSSDTAFGGGTKLTVLGGGGGSGGGGSGGGGSGGGGSEVQLVESGGGLVQPGGSLRLSCAASGFSLSSNAMGWVRQAPGKGLEYIGIISVGGFTYYASWAKGRFTISRDNSKNTVYLQMNSLRAEDTATYFCARDRHGGDSSGAFYLWGQGTLVTVSS
notes: also called PRO1051; 38_02_A04 sc01 scDb-i/33-03-G02 sc01 scDb-o/19-01-H04-sc03 scFv
B6: PRO1059 (bispecific antibody, human IgG1, kappa, L234A L235A)
light: DIQMTQSPSSLSASVGDRVTITCQASQSINDYLAWYQQKPGKAPKLLIYKASTLASGVPSRFSGSGSGTDFTLTISSLQPEDFATYYCQQGYIITDIDNVFGTGTKVTVLGTVAAPSVFIFPPSDEQLKSGTASVVCLLNNFYPREAKVQWKVDNALQSGNSQESVTEQDSKDSTYSLSSTLTLSKADYEKHKVYACEVTHQGLSSPVTKSFNRGECGGGGSGGGGSIQMTQSPSSLSASVGDRVTITCQASQSINNVLAWYQQKPGKAPKLLIYRASTLASGVPSRFSGSGSGTDFTLTISSLQPEDFATYYCQSSYGNYGDFGTGTKVTVLGGGGGSGGGGSGGGGSGGGGSQVQLQESGPGLVKPSETLSLTCKVSGFSFSNSYWICWIRQPPGKGLEWIGCTFVGSSDSTYYANWAKGRVTISVDSSKNQFSLKLSSVTAADTAVYYCARHPSDAVYGYANNLWGQGTLVTVSS
heavy: QVQLQESGPGLVKPSETLSLTCKVSGFSFSSGYDMCWIRQPPGKGLEWIGCVVAGSVDITYYASWAKGRVTISVDSSKNQFSLKLSSVTAADTAVYYCARKDAYSDAFNLWGQGTLVTVSSASTKGPSVFPLAPSSKSTSGGTAALGCLVKDYFPEPVTVSWNSGALTSGVHTFPAVLQSSGLYSLSSVVTVPSSSLGTQTYICNVNHKPSNTKVDKRVEPKSCDKTHTCPPCPAPEAAGGPSVFLFPPKPKDTLMISRTPEVTCVVVDVSHEDPEVKFNWYVDGVEVHNAKTKPREEQYNSTYRVVSVLTVLHQDWLNGKEYKCKVSNKALGAPIEKTISKAKGQPREPQVYTLPPSREEMTKNQVSLTCLVKGFYPSDIAVEWESNGQPENNYKTTPPVLDSDGSFFLYSKLTVDKSRWQQGNVFSCSVMHEALHNHYTQKSLSLSPGK
B7: PRO1060 (bispecific antibody, human IgG1, kappa, L234A L235A)
light: DIQMTQSPSSLSASVGDRVTITCQASQSINDYLAWYQQKPGKAPKLLIYKASTLASGVPSRFSGSGSGTDFTLTISSLQPEDFATYYCQQGYIITDIDNVFGTGTKVTVLGTVAAPSVFIFPPSDEQLKSGTASVVCLLNNFYPREAKVQWKVDNALQSGNSQESVTEQDSKDSTYSLSSTLTLSKADYEKHKVYACEVTHQGLSSPVTKSFNRGEC
heavy: QVQLQESGPGLVKPSETLSLTCKVSGFSFSSGYDMCWIRQPPGKGLEWIGCVVAGSVDITYYASWAKGRVTISVDSSKNQFSLKLSSVTAADTAVYYCARKDAYSDAFNLWGQGTLVTVSSASTKGPSVFPLAPSSKSTSGGTAALGCLVKDYFPEPVTVSWNSGALTSGVHTFPAVLQSSGLYSLSSVVTVPSSSLGTQTYICNVNHKPSNTKVDKRVEPKSCDKTHTCPPCPAPEAAGGPSVFLFPPKPKDTLMISRTPEVTCVVVDVSHEDPEVKFNWYVDGVEVHNAKTKPREEQYNSTYRVVSVLTVLHQDWLNGKEYKCKVSNKALGAPIEKTISKAKGQPREPQVYTLPPSREEMTKNQVSLTCLVKGFYPSDIAVEWESNGQPENNYKTTPPVLDSDGSFFLYSKLTVDKSRWQQGNVFSCSVMHEALHNHYTQKSLSLSPGKGGGGSGGGGSIQMTQSPSSLSASVGDRVTITCQASQSINNVLAWYQQKPGKAPKLLIYRASTLASGVPSRFSGSGSGTDFTLTISSLQPEDFATYYCQSSYGNYGDFGTGTKVTVLGGGGGSGGGGSGGGGSGGGGSQVQLQESGPGLVKPSETLSLTCKVSGFSFSNSYWICWIRQPPGKGLEWIGCTFVGSSDSTYYANWAKGRVTISVDSSKNQFSLKLSSVTAADTAVYYCARHPSDAVYGYANNLWGQGTLVTVSS

Legend:
[1] = molecular target: human PD-L1 expressed on cells (human, UniProt Q9NZQ7 19-290); assay: cell-based or functional assay
[2] = molecular target: T1, human PD-L1-Fc chimeric protein (human, UniProt Q9NZQ7 19-238); assay: SPR Biacore T200, PD-L1-Fc captured by anti-human Fc
T1 construct: not shown: Fc part, captured by an anti-human IgG Fc antibody

human serum albumin = molecular target: T2, human serum albumin (human, UniProt P02768 25-609); assay: SPR Biacore T200, SA amine-coupled to CM5 chip, pH 5.5
T2 construct: also called HSA; human SA

Row | Binder | IC50 (ng/ml), NF-AT Potency assay [1] [ng/mL] | also measured
1 | B1 | 88.5 | 
2 | B2 |  | binding result [2]: binds
3 | B3 | 21.3 | 
4 | B4 | 42.9 | 
5 | B5 |  | binding result (human serum albumin): binds; IC50 (ng/ml), NF-AT Potency assay, with HSA [1]: 275 ng/mL
6 | B6 | 93.8 | 
7 | B7 | 133 | 

Source: EP3470429A1 (Numab Innovation AG, dated 2019)
